T1: human TNFR2 (human, UniProt P20333 23-461)
T1 construct: expressed on the surface of CHO cells; also called HuTNFR2; TNFRSF1B
T1 sequence: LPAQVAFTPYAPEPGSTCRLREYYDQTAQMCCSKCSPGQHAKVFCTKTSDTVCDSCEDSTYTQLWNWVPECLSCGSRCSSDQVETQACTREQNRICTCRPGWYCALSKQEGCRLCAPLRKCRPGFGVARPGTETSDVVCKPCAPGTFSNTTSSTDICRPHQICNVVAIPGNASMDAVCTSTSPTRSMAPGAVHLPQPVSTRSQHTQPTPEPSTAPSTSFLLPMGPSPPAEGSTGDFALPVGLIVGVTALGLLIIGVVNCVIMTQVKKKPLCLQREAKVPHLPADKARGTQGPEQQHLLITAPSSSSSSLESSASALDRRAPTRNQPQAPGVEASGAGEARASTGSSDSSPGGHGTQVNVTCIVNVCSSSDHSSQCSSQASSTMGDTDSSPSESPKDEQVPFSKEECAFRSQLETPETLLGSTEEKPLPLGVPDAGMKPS


Biological target: T1, human TNFR2
Test: binding to human TNFR2 CHO cells

Row | binding result | Binder
1 | no binding | IgG 1962 (antibody, name in Kabat numbering, V domains shown, IgG) VH: QVQLVQSGAEVKKPGASVKVSCKVSGFSFPSSGVDWVRQAPGQGLEWLGVTFQEGSTHYNQKFQGRVTITKDTSKSTVYMELSSLRSEDTAVYYCASGEHDEGFVYWGQGTLVTVSS VL: DIQLTQSPSFLSASVGDRVTITCKASQNVGTAVAWYQQKPGKAPKLLIYAASTLQSGVPSRFSGSGSGTEFTLTISSLQPEDFATYYCQQYSSYPLTFGGGTKVEIKR
2 | no binding | IgG 1965 (antibody, name in Kabat numbering, V domains shown, IgG) VH: QVQLVQSGAEVKKPGASVKVSCKVSGFSFPSSGVDWVRQAPGQGLEWLGVTLGHGSTHYNQKFQGRVTITKDTSKSTVYMELSSLRSEDTAVYYCASGESTEGFVYWGQGTLVTVSS VL: DIQLTQSPSFLSASVGDRVTITCKASQNVGTAVAWYQQKPGKAPKLLIYAASTLQSGVPSRFSGSGSGTEFTLTISSLQPEDFATYYCQQYSSYPLTFGGGTKVEIKR
3 | no binding | IgG 1970 (antibody, name in Kabat numbering, V domains shown, IgG) VH: QVQLVQSGAEVKKPGASVKVSCKVSGFSFPSSGVDWVRQAPGQGLEWLGVTHGSGSTHYNQKFQGRVTITKDTSKSTVYMELSSLRSEDTAVYYCASGEHDEGFVYWGQGTLVTVSS VL: DIQLTQSPSFLSASVGDRVTITCKASQNVGTAVAWYQQKPGKAPKLLIYAASTLQSGVPSRFSGSGSGTEFTLTISSLQPEDFATYYCQQYSSYPLTFGGGTKVEIKR
4 | no binding | IgG 1967 (antibody, name in Kabat numbering, V domains shown, IgG) VH: QVQLVQSGAEVKKPGASVKVSCKVSGFSFPSSGVDWVRQAPGQGLEWLGVTLGHGSTHYNQKFQGRVTITKDTSKSTVYMELSSLRSEDTAVYYCASGERDEGFVYWGQGTLVTVSS VL: DIQLTQSPSFLSASVGDRVTITCKASQNVGTAVAWYQQKPGKAPKLLIYAASTLQSGVPSRFSGSGSGTEFTLTISSLQPEDFATYYCQQYSSYPLTFGGGTKVEIKR
5 | no binding | IgG 1969 (antibody, name in Kabat numbering, V domains shown, IgG) VH: QVQLVQSGAEVKKPGASVKVSCKVSGFSFPSSGVDWVRQAPGQGLEWLGVTHGSGSTHYNQKFQGRVTITKDTSKSTVYMELSSLRSEDTAVYYCASGESTEGFVYWGQGTLVTVSS VL: DIQLTQSPSFLSASVGDRVTITCKASQNVGTAVAWYQQKPGKAPKLLIYAASTLQSGVPSRFSGSGSGTEFTLTISSLQPEDFATYYCQQYSSYPLTFGGGTKVEIKR
6 | no binding | IgG 1966 (antibody, name in Kabat numbering, V domains shown, IgG) VH: QVQLVQSGAEVKKPGASVKVSCKVSGFSFPSSGVDWVRQAPGQGLEWLGVTLGHGSTHYNQKFQGRVTITKDTSKSTVYMELSSLRSEDTAVYYCASGEHDEGFVYWGQGTLVTVSS VL: DIQLTQSPSFLSASVGDRVTITCKASQNVGTAVAWYQQKPGKAPKLLIYAASTLQSGVPSRFSGSGSGTEFTLTISSLQPEDFATYYCQQYSSYPLTFGGGTKVEIKR
7 | no binding | IgG 1963 (antibody, name in Kabat numbering, V domains shown, IgG) VH: QVQLVQSGAEVKKPGASVKVSCKVSGFSFPSSGVDWVRQAPGQGLEWLGVTFQEGSTHYNQKFQGRVTITKDTSKSTVYMELSSLRSEDTAVYYCASGERDEGFVYWGQGTLVTVSS VL: DIQLTQSPSFLSASVGDRVTITCKASQNVGTAVAWYQQKPGKAPKLLIYAASTLQSGVPSRFSGSGSGTEFTLTISSLQPEDFATYYCQQYSSYPLTFGGGTKVEIKR
8 | no binding | IgG 1971 (antibody, name in Kabat numbering, V domains shown, IgG) VH: QVQLVQSGAEVKKPGASVKVSCKVSGFSFPSSGVDWVRQAPGQGLEWLGVTHGSGSTHYNQKFQGRVTITKDTSKSTVYMELSSLRSEDTAVYYCASGERDEGFVYWGQGTLVTVSS VL: DIQLTQSPSFLSASVGDRVTITCKASQNVGTAVAWYQQKPGKAPKLLIYAASTLQSGVPSRFSGSGSGTEFTLTISSLQPEDFATYYCQQYSSYPLTFGGGTKVEIKR
